Measured values as given in PMC6980832, “Crystal structures of Triosephosphate Isomerases from Taenia solium and Schistosoma mansoni provide insights for vaccine rationale and drug design against helminth parasites” (PLoS Neglected Tropical Diseases, 2020).

Assays:
Assay in all cases: SEC; gel filtration elution profile of wild-type and point mutants of SmTPI; conditions not shown
[1] = biological target: SmTPI-C221Y (Schistosoma mansoni)
[2] = biological target: SmTPI-C221S (Schistosoma mansoni)
[3] = biological target: SmTPI-C221D (Schistosoma mansoni)
[4] = biological target: SmTPI-C221K (Schistosoma mansoni)

## SmTPI-C221Y (enzyme)
[1]
  stoichiometry N: 2

## SmTPI-C221S (enzyme)
[2]
  stoichiometry N: 2

## SmTPI-C221D (enzyme)
[3]
  stoichiometry N: 2

## SmTPI-C221K (enzyme)
[4]
  stoichiometry N: 2
